Here are results for 18 substances from PMC11265280.

For orientation: Kd means the concentration at which binding is half-saturated.

Assay [1] addresses MERS-CoV spike RBD (Middle East respiratory syndrome-related coronavirus) (UniProt K9N5Q8). The following applies: cited from earlier work.
Assay [2] concerns the target PHEV spike S1 receptor-binding domain, Fc-tagged. The experiment in a line: co-immunoprecipitation, quantified band intensity. The following applies: 293T cells; n = 3; parent: est. 100; read off a plot.
Assay [3] addresses soluble murine DPP4-IgG1 (murine) (UniProt P28843). The assay is described as follows: SPR; BIAcore X-100, CM5 chip, room temperature; soluble DPP4-IgG1 immobilised by amine coupling; S1-RBD injected at 0.125-4.0 µM in 0.01 M HEPES, 0.15 M NaCl, 0.5% surfactant P20, 3 mM EDTA, pH 7.4; reference cell with BSA; steady-state affinity model.
The target in assay [4] is soluble porcine DPP4-IgG1 (porcine) (UniProt P22411). Described as above.

In the case of DPP4 (from UniProt P27487), the equilibrium dissociation constant (Kd) in assay [1] is 17 nM. For “murine dipeptidyl peptidase 4, GFP-tagged (from UniProt P28843) N321Q”, in assay [2], the percent of parent (% of RBD binding) came to 250. “murine dipeptidyl peptidase 4, GFP-tagged (from UniProt P28843) N229Q”: the percent of parent (% of RBD binding) in assay [2] amounted to 350. As for “monomeric PHEV S1-RBD (SPR analyte) (domain or fragment)”, the figures for the Kd in assay [3] and in assay [4] were 361 nM and 174 nM, respectively. With “porcine dipeptidyl peptidase 4, GFP-tagged (from UniProt P22411) K267A”, the percent of parent (% of RBD binding) in assay [2] stood at 84. Consider “porcine dipeptidyl peptidase 4, GFP-tagged (from UniProt P22411) N229Q”, for which, in assay [2], the percent of parent (% of RBD binding) was found to be 190. As for “murine dipeptidyl peptidase 4, GFP-tagged (from UniProt P28843) K267A”, the percent of parent (% of RBD binding) in assay [2] was 110. Still for that read-out and setting: the value for “murine dipeptidyl peptidase 4, GFP-tagged (from UniProt P28843) A294E; R295E” was 95; that for “porcine dipeptidyl peptidase 4, GFP-tagged (from UniProt P22411) L294T; I295T” was 82.

Take “murine dipeptidyl peptidase 4, GFP-tagged (from UniProt P28843) A294T; R295T”: the percent of parent (% of RBD binding) in assay [2] was 100. With “porcine dipeptidyl peptidase 4, GFP-tagged (from UniProt P22411) N321Q”, the percent of parent (% of RBD binding) in assay [2] is 170. As to “porcine dipeptidyl peptidase 4, GFP-tagged (from UniProt P22411) L294E; I295E”, in assay [2], the percent of parent (% of RBD binding) was 110. Regarding “murine dipeptidyl peptidase 4, GFP-tagged (from UniProt P28843) R317A”, in assay [2], the percent of parent (% of RBD binding) was 92. As for “porcine dipeptidyl peptidase 4, GFP-tagged (from UniProt P22411) Q344A”, the percent of parent (% of RBD binding) in assay [2] was 130.

On to “porcine dipeptidyl peptidase 4, GFP-tagged (from UniProt P22411) R317A”, for which the percent of parent (% of RBD binding) in assay [2] is 98. Same read-out and setting: under “porcine dipeptidyl peptidase 4, GFP-tagged (from UniProt P22411) R336E” stands 120; under “murine dipeptidyl peptidase 4, GFP-tagged (from UniProt P28843) T336E”, 100; under “murine dipeptidyl peptidase 4, GFP-tagged (from UniProt P28843) Q344A”, 120.
